Data on 2 molecules can be found in publication PMC5314767.

Data set [1] deals with T1, TFAM (human, UniProt Q00059 43-245).
T1 sequence: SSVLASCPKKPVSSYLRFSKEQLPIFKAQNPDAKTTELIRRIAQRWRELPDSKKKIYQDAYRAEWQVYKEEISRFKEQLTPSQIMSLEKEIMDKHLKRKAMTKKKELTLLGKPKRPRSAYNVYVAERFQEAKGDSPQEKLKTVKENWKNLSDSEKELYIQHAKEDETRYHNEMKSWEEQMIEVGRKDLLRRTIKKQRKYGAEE
The data set is described as follows: fluorescence anisotropy. On the technique in general: In fluorescence polarisation assays a small probe gives low polarisation when free and higher when bound to something large.

Data set [2] addresses POLRMT;TFAM (human;human, UniProt O00411;Q00059 43-1230;43-245, |). The data set is described as follows: fluorescence anisotropy.
The target of data set [3] is POLRMT;TFAM;TFB2M (human;human;human, UniProt O00411;Q00059;Q9H5Q4 43-1230;43-245;21-396, ||). The data set is described as follows: fluorescence anisotropy.
Sequence of POLRMT;TFAM;TFB2M (O00411 43-1230, chain 1 of 2): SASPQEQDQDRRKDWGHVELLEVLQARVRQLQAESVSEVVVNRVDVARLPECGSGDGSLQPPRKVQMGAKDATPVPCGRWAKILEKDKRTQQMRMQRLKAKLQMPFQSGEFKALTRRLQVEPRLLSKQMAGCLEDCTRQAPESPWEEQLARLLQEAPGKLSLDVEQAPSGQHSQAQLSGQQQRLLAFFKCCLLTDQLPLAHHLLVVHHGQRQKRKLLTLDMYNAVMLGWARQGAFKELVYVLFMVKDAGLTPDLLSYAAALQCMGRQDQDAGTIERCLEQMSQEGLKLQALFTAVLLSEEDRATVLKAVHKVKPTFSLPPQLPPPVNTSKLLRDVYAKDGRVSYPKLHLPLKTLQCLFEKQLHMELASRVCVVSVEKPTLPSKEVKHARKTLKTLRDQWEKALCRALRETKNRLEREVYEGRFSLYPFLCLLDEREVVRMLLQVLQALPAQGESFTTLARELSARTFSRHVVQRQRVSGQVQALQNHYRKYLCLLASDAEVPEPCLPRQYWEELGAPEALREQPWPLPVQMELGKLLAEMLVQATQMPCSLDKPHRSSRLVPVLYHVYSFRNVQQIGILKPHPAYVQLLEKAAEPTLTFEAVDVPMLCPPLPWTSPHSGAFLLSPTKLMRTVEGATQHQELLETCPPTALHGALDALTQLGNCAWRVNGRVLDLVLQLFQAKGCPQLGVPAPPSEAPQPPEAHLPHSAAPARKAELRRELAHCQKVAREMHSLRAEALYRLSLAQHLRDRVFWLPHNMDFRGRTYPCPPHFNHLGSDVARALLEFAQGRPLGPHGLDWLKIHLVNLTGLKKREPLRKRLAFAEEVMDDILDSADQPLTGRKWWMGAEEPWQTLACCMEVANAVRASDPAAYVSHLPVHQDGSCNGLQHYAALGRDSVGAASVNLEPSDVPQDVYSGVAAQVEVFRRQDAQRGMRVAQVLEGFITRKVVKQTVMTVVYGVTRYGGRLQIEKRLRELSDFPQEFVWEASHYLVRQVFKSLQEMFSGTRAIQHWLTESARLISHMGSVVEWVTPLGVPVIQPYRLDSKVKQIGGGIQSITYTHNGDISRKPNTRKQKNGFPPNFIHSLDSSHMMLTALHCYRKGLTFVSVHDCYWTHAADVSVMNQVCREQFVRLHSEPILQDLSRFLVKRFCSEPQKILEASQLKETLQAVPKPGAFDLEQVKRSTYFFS
Sequence of POLRMT;TFAM;TFB2M (Q9H5Q4 21-396, chain 3 of 2): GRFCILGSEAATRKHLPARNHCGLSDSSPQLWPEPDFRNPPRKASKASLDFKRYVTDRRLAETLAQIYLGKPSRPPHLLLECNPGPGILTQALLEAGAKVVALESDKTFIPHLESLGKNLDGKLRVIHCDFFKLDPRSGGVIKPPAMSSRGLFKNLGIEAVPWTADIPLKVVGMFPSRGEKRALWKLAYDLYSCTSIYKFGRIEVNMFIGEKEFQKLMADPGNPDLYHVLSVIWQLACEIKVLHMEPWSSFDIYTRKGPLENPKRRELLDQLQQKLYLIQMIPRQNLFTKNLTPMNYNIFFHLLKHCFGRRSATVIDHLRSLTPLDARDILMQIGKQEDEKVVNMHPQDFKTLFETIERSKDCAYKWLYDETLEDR
The target in data set [4] is T1, TFAM. As to the kind of experiment: EMSA.
Data set [5] addresses POLRMT;TFB2M (human;human, UniProt O00411;Q9H5Q4 43-1230;21-396, |). As to the kind of experiment: fluorescence anisotropy.
The target of data set [6] is POLRMT (human, UniProt O00411 43-1230). As to the kind of experiment: fluorescence anisotropy.
Sequence of POLRMT (O00411 43-1230): as the sequence (O00411 43-1230, chain 1 of 2) above

Sequence of POLRMT;TFB2M (O00411 43-1230, chain 1 of 2): as above
Sequence of POLRMT;TFB2M (Q9H5Q4 21-396, chain 2 of 2): as the sequence (Q9H5Q4 21-396, chain 3 of 2) above
Sequence of POLRMT;TFAM (O00411 43-1230, one chain of several): as the sequence (O00411 43-1230, chain 1 of 2) above

B1: LSP -41 to +10 (dsDNA)
DNA 1: TGTGTTAGTTGGGGGGTGACTGTTAAAAGTGCATACCGCCAAAAGATAAAA
DNA 2: TTTTATCTTTTGGCGGTATGCACTTTTAACAGTCACCCCCCAACTAACACA
As to B1, the Kd turned out to be 7 nM in data set [1], 3 nM in data set [2] and 4 nM in data set [3].

B2: LSP -41 to -12 upstream fragment (dsDNA)
DNA 1: TGTGTTAGTTGGGGGGTGACTGTTAAAAGT
DNA 2: ACTTTTAACAGTCACCCCCCAACTAACACA
For the molecule B2, the binding result in data set [4] is “binds”. In addition, the Kd amounted to 5 nM in data set [5] and 8 nM in data set [6].

Broadly, the Kd is the concentration at which binding is half-saturated. Low values mean a tighter complex, high ones a looser complex.
